Values belong to the molecule of their own block, whether it stands above or below them. No end group written: not given here. *: point of attachment. APDP = N-(4-[p-azidosalicylamido]butyl)-3'-(2'-pyridyldithio)propionamide, photoaffinity cross-linker coupled via disulfide to Cys, [N-]=[N+]=Nc1ccc(C(=O)NCCCCNC(=O)CCS*)c(O)c1; 125I = [125I]*
Tests used:
OsPEPR1 (rice) = assay: cell-based or functional assay
AtPEPR1 [1] = biological target: T1, AtPEPR1 (Arabidopsis thaliana, UniProt Q9SSL9 29-1123, glycosylated (about 180 kD, about 150 kD after PNGase F)); assay: cell-based or functional assay
T1 sequence: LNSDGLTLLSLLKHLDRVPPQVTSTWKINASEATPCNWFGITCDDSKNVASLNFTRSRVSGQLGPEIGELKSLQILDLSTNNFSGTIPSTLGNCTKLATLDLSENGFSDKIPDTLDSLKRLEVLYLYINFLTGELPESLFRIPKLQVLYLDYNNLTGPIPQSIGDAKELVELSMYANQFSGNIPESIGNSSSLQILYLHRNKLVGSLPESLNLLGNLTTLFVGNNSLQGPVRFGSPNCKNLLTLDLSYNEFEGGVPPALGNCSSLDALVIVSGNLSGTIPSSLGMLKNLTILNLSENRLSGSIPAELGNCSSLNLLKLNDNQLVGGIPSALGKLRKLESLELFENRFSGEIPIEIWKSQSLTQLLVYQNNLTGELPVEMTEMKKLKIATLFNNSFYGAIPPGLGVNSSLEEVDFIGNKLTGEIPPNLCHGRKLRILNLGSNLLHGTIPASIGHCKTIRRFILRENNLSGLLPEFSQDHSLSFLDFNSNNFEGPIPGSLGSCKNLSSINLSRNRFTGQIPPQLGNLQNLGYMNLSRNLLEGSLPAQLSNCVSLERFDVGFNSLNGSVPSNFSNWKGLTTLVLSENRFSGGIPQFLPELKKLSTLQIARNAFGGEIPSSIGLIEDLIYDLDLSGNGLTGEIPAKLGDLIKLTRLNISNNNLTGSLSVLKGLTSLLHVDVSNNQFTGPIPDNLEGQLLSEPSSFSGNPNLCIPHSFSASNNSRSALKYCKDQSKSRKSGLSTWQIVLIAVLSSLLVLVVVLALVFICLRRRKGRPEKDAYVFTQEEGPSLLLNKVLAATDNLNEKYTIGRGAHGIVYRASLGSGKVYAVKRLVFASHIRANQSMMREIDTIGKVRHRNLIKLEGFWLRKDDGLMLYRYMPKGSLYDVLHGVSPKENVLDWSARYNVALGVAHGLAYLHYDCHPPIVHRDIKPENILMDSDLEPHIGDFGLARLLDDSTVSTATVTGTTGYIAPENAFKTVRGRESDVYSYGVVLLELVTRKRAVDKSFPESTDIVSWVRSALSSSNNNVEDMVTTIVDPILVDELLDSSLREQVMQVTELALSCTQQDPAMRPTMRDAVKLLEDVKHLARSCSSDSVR

AtPEPR2 [2] = biological target: T2, AtPEPR2 (Arabidopsis thaliana, UniProt Q9FZ59 27-1088); assay: sub-heading of Example 9, supported by alkalinization and photoaffinity labeling of transgenic tobacco cells
T2 construct: Coding region expressed under the CaMV 35S promoter in tobacco suspension-cultured cells; also called second AtPep1 receptor; At1g17750
T2 sequence: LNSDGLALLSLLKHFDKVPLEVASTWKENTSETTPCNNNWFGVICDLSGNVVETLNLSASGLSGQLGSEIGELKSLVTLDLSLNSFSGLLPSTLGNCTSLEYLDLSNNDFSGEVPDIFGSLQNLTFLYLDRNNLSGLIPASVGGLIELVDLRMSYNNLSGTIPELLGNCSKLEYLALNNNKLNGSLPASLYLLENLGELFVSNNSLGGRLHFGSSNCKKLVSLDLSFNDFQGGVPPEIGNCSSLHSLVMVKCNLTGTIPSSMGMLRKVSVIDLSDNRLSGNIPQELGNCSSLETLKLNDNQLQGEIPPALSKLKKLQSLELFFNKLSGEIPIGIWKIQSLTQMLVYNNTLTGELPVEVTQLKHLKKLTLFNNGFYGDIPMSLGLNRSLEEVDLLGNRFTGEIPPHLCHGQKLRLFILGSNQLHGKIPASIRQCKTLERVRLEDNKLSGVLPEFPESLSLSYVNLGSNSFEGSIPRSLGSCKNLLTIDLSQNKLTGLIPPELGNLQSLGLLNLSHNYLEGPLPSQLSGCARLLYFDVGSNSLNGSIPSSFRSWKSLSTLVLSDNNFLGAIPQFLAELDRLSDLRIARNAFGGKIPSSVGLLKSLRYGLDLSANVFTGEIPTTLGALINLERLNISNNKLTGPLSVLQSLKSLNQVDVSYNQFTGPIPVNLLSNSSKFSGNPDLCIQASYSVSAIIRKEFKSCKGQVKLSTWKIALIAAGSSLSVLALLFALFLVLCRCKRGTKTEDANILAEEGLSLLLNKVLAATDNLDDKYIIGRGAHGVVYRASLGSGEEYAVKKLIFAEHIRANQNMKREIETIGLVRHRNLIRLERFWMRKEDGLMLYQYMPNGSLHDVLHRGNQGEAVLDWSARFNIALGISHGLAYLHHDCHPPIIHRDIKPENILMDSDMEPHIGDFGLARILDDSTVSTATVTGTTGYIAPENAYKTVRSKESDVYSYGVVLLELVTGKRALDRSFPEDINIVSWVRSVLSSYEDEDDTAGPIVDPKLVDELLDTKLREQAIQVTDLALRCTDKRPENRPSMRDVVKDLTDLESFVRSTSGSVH
Description: To clarify whether AtPEPR2 binds to AtPep1, the AtPEPR2 coding region was fused to the CaMV 35S promoter and introduced into tobacco suspension-cultured cells by Agrobacterium. Tobacco cells expressing AtPEPR1 and GUS genes were also created as positive and negative controls, respectively. […] These transgenic lines were analyzed for alkalinizing activity as previously described (Pearce et al., Proc. Natl. Acad. Sci. USA 98, 12843-12847, 2001). […] The level of response to AtPep1 for the AtPEPR2-expressing cells was similar to that of AtPEPR1-expressing cells and to Arabidopsis cells (Yamaguchi et al., Proc. Natl. Acad. Sci. USA 103: 10104-10109, 2006, Huffaker et al., Proc. Natl. Acad. Sci. USA 103: 10098-10103, 2006), with a maximal change of 1-1.2 pH units and a half-maximal peptide activity of 0.25 nM.
(§1) For final confirmation, a photoaffinity-labeling experiment was performed using the transgenic tobacco cells. […] After separation of extracted proteins by SDS-PAGE, the labeled proteins were detected on X-ray film. […] Since no specific labeling was detected in wild type tobacco and GUS expressing cells, the proteins labeled specifically by ¹²⁵I₁-azido-Cys-AtPep1 in AtPEPR1 and AtPEPR2 expressing cells were products from the AtPEPR1 and AtPEPR2 genes.

AtPEPR1 [3] = biological target: T1, AtPEPR1; assay: saturation binding of radiolabeled peptide to Arabidopsis suspension cultured cells, Scatchard analysis
Description: An analog of AtPep1 was synthesized with a Tyr residue attached to its N-terminus and radiolabeled with ¹²⁵I to quantify binding. The Tyr analog and mono- and di-iodo-Tyr-AtPep1 analogs were separated by HPLC, and the concentration-dependent activities of AtPep1 and these analogs where tested in the alkalinization assay. […] The mono-iodinated Tyr-AtPep1 comprised about 95% of the iodinated proteins and was employed for binding studies.

AtPEPR1 [4] = biological target: T1, AtPEPR1; assay: photoaffinity labeling (0.25 nM) of transgenic tobacco cells expressing AtPEPR1, SDS-PAGE and X-ray film
Description: (§2) This wash was repeated twice. The cells were resuspended in 1 mL MS medium and irradiated with UV-B for 10 min on ice to photoactivate the azido group to effect the crosslinking. The cells were washed with 1 mL MS medium, centrifuged as above, and resuspended in 400 μL of 5% SDS. The cells were disrupted by boiling for 30 min, and the insoluble debris was removed by centrifugation at 10,000×g. […] After centrifugation at 10,000×g, the pellet was recovered and dissolved in 100 μL of Laemmli sample buffer containing 5% SDS, boiled for 10 min, and separated using 8% SDS-PAGE. The gels were dried and exposed to X-ray film for 50 hr to visualize labeled proteins. In competition assays, unlabeled AtPep1 and suramin were added to the cells and incubated for 10 min before adding ¹²⁵I-azido-Cys-AtPep1. The same procedures described above were employed to detect labeled proteins.
as §1

AtPEPR2 [5] = biological target: T2, AtPEPR2; assay: photoaffinity labeling (0.25 nM) of transgenic tobacco cells expressing AtPEPR2, SDS-PAGE and X-ray film
Description: as §2, §1

Molecule: OsPep3a (peptide)
half-maximal activity, alkalinization of tobacco cells expressing OsPEPR1 (OsPEPR1 (rice)): 0.25 nM
medium pH increase, tobacco cells expressing OsPEPR1 (OsPEPR1 (rice)): 1.2 pH unit

Molecule: ZmPep4a (peptide)
half-maximal activity, alkalinization of tobacco cells expressing OsPEPR1 (OsPEPR1 (rice)): 0.25 nM
medium pH increase, tobacco cells expressing OsPEPR1 (OsPEPR1 (rice)): 1.2 pH unit

B2: 125I1-Tyr-AtPep1 (peptide)
peptide: Y(125I)ATKVKAKQRGKEKVSSGRPGQHN
notes: also called mono-iodinated Tyr-AtPep1
Kd (AtPEPR1 [3]): 0.25 nM

B4: AtPep5 (peptide)
peptide: GLPGKKNVLKKSRESSGKPGGTN
change in medium pH of transgenic tobacco cells expressing AtPEPR1 at 2.5 nM peptide (AtPEPR1 [1]): ≤ 0.6 pH units
half-maximal activity, alkalinization of tobacco cells expressing AtPEPR1 (AtPEPR1 [1]): 0.25 nM
maximal change of medium pH, tobacco cells expressing AtPEPR1 (AtPEPR1 [1]): 1.2 pH units

B5: AtPep2 (peptide)
peptide: SLNVMRKGIRKQPVSSGKRGGVN
change in medium pH of transgenic tobacco cells expressing AtPEPR1 at 2.5 nM peptide (AtPEPR1 [1]): ≤ 0.6 pH units
half-maximal activity, alkalinization of tobacco cells expressing AtPEPR1 (AtPEPR1 [1]): 0.25 nM
maximal change of medium pH, tobacco cells expressing AtPEPR1 (AtPEPR1 [1]): 1.2 pH units

B6: AtPep4 (peptide)
peptide: EIKARGKNKTKPTPSSGKGGKHN
half-maximal activity, alkalinization of tobacco cells expressing AtPEPR1 (AtPEPR1 [1]): 2.5 nM

B7: AtPep7 (peptide)
peptide: VSGNVAARKGKQQTSSGKGGGTN
half-maximal activity, alkalinization of tobacco cells expressing AtPEPR1 (AtPEPR1 [1]): 2.5 nM

Now from value to molecule:

half-maximal activity, alkalinization of tobacco cells expressing AtPEPR1 (AtPEPR1 [1]): 0.25 nM
maximal change of medium pH, tobacco cells expressing AtPEPR1 (AtPEPR1 [1]): 1.2 pH units
binding result (AtPEPR2 [2]): binds
B1: AtPep1 (peptide)
peptide: ATKVKAKQRGKEKVSSGRPGQHN
notes: 23 amino acid peptide, chemically synthesized, not post-translationally modified; also called Arabidopsis Peptide 1; native AtPep1

binding result (AtPEPR1 [4]): binds
binding result (AtPEPR2 [5]): binds
B3: 125I-azido-Cys-AtPep1 (peptide)
peptide: C(APDP)ATKVKAKQRGKEKVSSGRPGQHN
modifications: also: mono-iodinated with 125I, site not given here
notes: also called 125I1-azido-Cys-AtPep1

change in medium pH of transgenic tobacco cells expressing AtPEPR1 at 2.5 nM peptide (AtPEPR1 [1]): ≤ 0.6 pH units
half-maximal activity, alkalinization of tobacco cells expressing AtPEPR1 (AtPEPR1 [1]): 0.25 nM
maximal change of medium pH, tobacco cells expressing AtPEPR1 (AtPEPR1 [1]): 1.2 pH units
B8: AtPep6 (peptide)
peptide: ITAVLRRRPRPPPYSSGRPGQNN
